Measurements taken from patent US20150203577A1 (Chugai, published 2015).
Residue numbers refer to the chain shown, from its start.

T1: mouse FcγRIII (mouse, UniProt P08508 31-215)
T1 construct: also called mFcγRIII; mFcgRIII
T1 chain: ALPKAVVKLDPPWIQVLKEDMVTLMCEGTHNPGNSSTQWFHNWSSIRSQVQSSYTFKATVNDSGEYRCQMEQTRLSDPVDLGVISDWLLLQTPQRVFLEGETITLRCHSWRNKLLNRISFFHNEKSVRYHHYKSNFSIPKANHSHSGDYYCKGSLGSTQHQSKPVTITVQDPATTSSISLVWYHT

T2: mouse FcγRII (mouse, UniProt P08101 30-210)
T2 construct: also called mFcγRII; mFcgRII
T2 sequence: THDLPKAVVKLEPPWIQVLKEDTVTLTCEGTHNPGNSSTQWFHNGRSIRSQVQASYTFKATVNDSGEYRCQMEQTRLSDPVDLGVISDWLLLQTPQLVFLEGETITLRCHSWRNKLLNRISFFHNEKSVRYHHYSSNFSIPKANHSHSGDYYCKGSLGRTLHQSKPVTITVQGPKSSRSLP

T3: mouse FcγRII (mouse, UniProt P08101 30-210)
T3 construct: Extracellular domain with C-terminal His tag; also called mFcγRII; mFcgRII
T3 sequence: T2 sequence

T4: mouse FcγRIII (mouse, UniProt P08508 31-215)
T4 construct: Extracellular domain with C-terminal His tag; also called mFcγRIII; mFcgRIII
T4 chain: T1 chain

B1: H237-MB637/MRAL-k0 (antibody, mouse IgG1, kappa)
heavy: QVQLQESGPGLVKPSETLSLTCAVSGHSISHDHAWSWVRQPPGEGLEWIGFISYSGITNYNPSLQGRVTISRDNSKNTLYLQMNSLRAEDTAVYYCARSLARTTAMDYWGEGTLVTVSSAKTTPPSVYPLAPGSAAQTNSMVTLGCLVKGYFPEPVTVTWNSGSLSSGVHTFPAVLQSDLYTLSSSVTVPSSTWPSETVTCNVAHPASSTKVDKKIVPRDCGCKPCICEPAEVENVFIFPPKPKDVLTITLTPKVTCVVVDISKDDPEVQFSWFVDDVEVHTAQTQPREEQFNSTFRSVSELPIMHQDWLNGKEFKCRVNSAAFPAPIEKTISKTKGRPKAPQVYTIPPPKEQMAKDKVSLTCMITDFFPEDITVEWQWNGQPAENYKNTQPIMDTDGSYFVYSKLNVQKSNWEAGNTFTCSVLHEGLHNHHTEKSLSHSPGK
light: not shown
notes: mouse IgG1 CH variant; copies: 2 + 2
B2: H237-MB702/MRAL-k0 (antibody, mouse IgG1, kappa)
heavy: B1 heavy with E229T, P230A, A231Y
light: not shown
notes: as for B1
B3: H237-MB607/MRAL-k0 (antibody, mouse IgG1, kappa)
heavy: B1 heavy with E229T, P230V, A231P, V233E, N235E
light: not shown
notes: as for B1
B4: H237-MB647/MRAL-k0 (antibody, mouse IgG1, kappa)
heavy: B1 heavy with E229I, N235Y
light: not shown
notes: as for B1
B5: H237-MB716/MRAL-k0 (antibody, mouse IgG1, kappa)
heavy: B1 heavy with A231N, N235I
light: not shown
notes: as for B1
B6: H237-MB633/MRAL-k0 (antibody, mouse IgG1, kappa)
heavy: B1 heavy with P230D, A231Y
light: not shown
notes: as for B1
B7: H237-MB617/MRAL-k0 (antibody, mouse IgG1, kappa)
heavy: B1 heavy with E229T, P230V, A231P, V233E, E234S, N235D, F237D
light: not shown
notes: as for B1
B8: H237-MB718/MRAL-k0 (antibody, mouse IgG1, kappa)
heavy: B1 heavy with A231N, N235T
light: not shown
notes: as for B1
B9: H237-MB690/MRAL-k0 (antibody, mouse IgG1, kappa)
heavy: B1 heavy with E229T, N235Y
light: not shown
notes: as for B1
B10: H237-MB641/MRAL-k0 (antibody, mouse IgG1, kappa)
heavy: B1 heavy with P230A, A231Y, N235Y
light: not shown
notes: as for B1
B11: H237-MB624/MRAL-k0 (antibody, mouse IgG1, kappa)
heavy: B1 heavy with P230D, A231Y, N235L
light: not shown
notes: as for B1
B12: H237-MB618/MRAL-k0 (antibody, mouse IgG1)
heavy: B1 heavy with E229T, P230V, A231P, V233E, E234D, N235D
light: not shown
notes: as for B1
B13: H237-MB731/MRAL-k0 (antibody, mouse IgG1, kappa)
heavy: B1 heavy with V233E, N235L
light: not shown
notes: as for B1
B14: H237-MB643/MRAL-k0 (antibody, mouse IgG1, kappa)
heavy: B1 heavy with P230N, A231Y, N235Y
light: not shown
notes: as for B1
B15: H237-MB703/MRAL-k0 (antibody, mouse IgG1, kappa)
heavy: B1 heavy with P230A, A231P
light: not shown
notes: as for B1
B16: H237-MB715/MRAL-k0 (antibody, mouse IgG1, kappa)
heavy: B1 heavy with A231N, N235V
light: not shown
notes: as for B1
B17: H237-MB638/MRAL-k0 (antibody, mouse IgG1, kappa)
heavy: B1 heavy with E229I
light: not shown
notes: as for B1
B18: H237-MB611/MRAL-k0 (antibody, mouse IgG1, kappa)
heavy: B1 heavy with E229T, P230V, A231P, V233E, E234D, N235E
light: not shown
notes: as for B1
B19: H237-MB626/MRAL-k0 (antibody, mouse IgG1, kappa)
heavy: B1 heavy with P230T, A231Y, N235L
light: not shown
notes: as for B1
B20: H237-MB692/MRAL-k0 (antibody, mouse IgG1, kappa)
heavy: B1 heavy with A231P, N235Y
light: not shown
notes: as for B1
B21: H237-MB687/MRAL-k0 (antibody, mouse IgG1, kappa)
heavy: B1 heavy with A231P, N235L
light: not shown
notes: as for B1
B22: H237-MB693/MRAL-k0 (antibody, mouse IgG1, kappa)
heavy: B1 heavy with E229T, P230D, A231Y, N235Y
light: not shown
notes: as for B1
B23: MB861 (antibody, mouse IgG1, kappa)
heavy: B1 heavy with A231N, N235L, K264D, N320D, A322D, A323G
light: not shown
notes: CH name; VH H237 + CH, L chain MRAL-k0; copies: 2 + 2
B24: MB865 (antibody, mouse IgG1, kappa)
heavy: B1 heavy with A231N, N235L, K264D, Q291L, A322D, A323G
light: not shown
notes: as for B23
B25: MB864 (antibody, mouse IgG1, kappa)
heavy: B1 heavy with A231N, N235L, K264D, A322D, A323G, K330R
light: not shown
notes: as for B23
B26: MB863 (antibody, mouse IgG1, kappa)
heavy: B1 heavy with A231N, N235L, K264D, A322D, A323G, E329Y
light: not shown
notes: as for B23
B27: MB862 (antibody, mouse IgG1, kappa)
heavy: B1 heavy with A231N, N235L, K264D, A322D, A323G, P327Y
light: not shown
notes: as for B23

Target: T1, mouse FcγRIII
Assay: SPR (Biacore), antibody captured on Protein L, mFcγR as analyte
Experimental: (§1) Each altered antibody was analyzed for its interaction with each Fcγ receptor prepared above using Biacore T100 (GE Healthcare Japan Corp.), Biacore T200 (GE Healthcare Japan Corp.), Biacore A100, or Biacore 4000. The running buffer used was HBS-EP+ (GE Healthcare Japan Corp.). The assay temperature was set to 25° C. The sensor chips used were chips prepared by immobilizing Protein L (ACTIGEN or BioVision) onto Series S Sensor Chip CM5 (GE Healthcare Japan Corp.) or Series S Sensor Chip CM4 (GE Healthcare Japan Corp.) by the amine coupling method.
(§2) In order to calculate the KD value of each altered antibody for FcγR, kinetic analysis was conducted according to the following method: first, the antibody of interest was captured onto any of these chips and allowed to interact with mFcγR diluted with a running buffer. For the obtained sensorgram, the assay results were globally fit into the 1:1 Langmuir binding model using Biacore Evaluation Software to calculate an association rate constant ka (L/mol/s) and a dissociation rate constant kd (1/s). From these values, the dissociation constant KD (mol/L) was calculated.

Row | Kd [nM] | relative mFcγRIII-binding activity (mIgG1 = 1) [fold] | Binder
1 | 1890 | 0.17 | B1
2 | 3520 | 0.14 | B2
3 | 1770 | 0.18 | B3
4 | 2800 | 0.12 | B4
5 | 6150 | 0.08 | B5
6 | 1640 | 0.2 | B6
7 | 2100 | 0.15 | B7
8 | 5560 | 0.08 | B8
9 | 2710 | 0.19 | B9
10 | 2100 | 0.15 | B10
11 | 2870 | 0.11 | B11
12 | 2730 | 0.13 | B12
13 | 15300 | 0.03 | B13
14 | 2000 | 0.16 | B14
15 | 4900 | 0.1 | B15
16 | 11900 | 0.04 | B16
17 | 3380 | 0.1 | B17
18 | 3420 | 0.09 | B18
19 | 2370 | 0.14 | B19
20 | 4440 | 0.12 | B20
21 | 5320 | 0.1 | B21
22 | 5410 | 0.09 | B22

What follows are binders tested against T2, mouse FcγRII in the same assay as above.
Experimental: as §1, §2

Row | Kd [nM] | relative mFcγRII-binding activity (mIgG1 = 1) [fold] | Binder
23 | 80.7 | 2.87 | B1
24 | 339 | 0.96 | B2
25 | 67.9 | 3.14 | B3
26 | 200 | 1.16 | B4
27 | 52.8 | 5.07 | B5
28 | 75.8 | 3.05 | B6
29 | 255 | 0.84 | B7
30 | 247 | 1.08 | B8
31 | 204 | 1.6 | B9
32 | 143 | 1.62 | B10
33 | 263 | 0.88 | B11
34 | 156 | 1.63 | B12
35 | 238 | 1.13 | B13
36 | 126 | 1.83 | B14
37 | 345 | 0.94 | B15
38 | 236 | 1.14 | B16
39 | 280 | 0.83 | B17
40 | 192 | 1.11 | B18
41 | 261 | 0.89 | B19
42 | 186 | 1.75 | B20
43 | 345 | 0.94 | B21
44 | 267 | 1.22 | B22

These binders were tested against T3, mouse FcγRII (assay: SPR (Biacore T200); KD of H237-mIgG1/MRAL-k0 / KD of variant).

Row | relative mFcγRII-binding activity (mIgG1 = 1) [fold] | Binder
45 | 76.8 | B23
46 | 83.8 | B24
47 | 110 | B25
48 | 81.3 | B26
49 | 67.9 | B27

Target: T4, mouse FcγRIII
Assay: as above

Row | relative mFcγRIII-binding activity (mIgG1 = 1) [fold] | Binder
50 | 2.41 | B23
51 | 3.34 | B24
52 | 3.63 | B25
53 | 2.33 | B26
54 | 1.98 | B27

What follows are binders tested against T3, mouse FcγRII (assay: SPR (Biacore T200); KD of H237-MB630/MRAL-k0 / KD of variant).

Row | Relative mFcγRII-binding activity (MB630 = 1) [fold] | Binder
55 | 7.25 | B23
56 | 7.91 | B24
57 | 10.4 | B25
58 | 7.68 | B26
59 | 6.41 | B27

Target: T4, mouse FcγRIII
Assay: as above

Row | Relative mFcγRIII-binding activity (MB630 = 1) [fold] | Binder
60 | 13.2 | B23
61 | 18.3 | B24
62 | 19.9 | B25
63 | 12.7 | B26
64 | 10.8 | B27
